Source: US20250248376A1 (University of Texas, published 2025)

T1: Contactin (mouse Cntn1) (mouse, UniProt P12960 21-1001)
T1 construct: whole, on cells; One entry covers both endogenous spinal cord Contactin and Contactin transfected into HEK cells; It was immunoprecipitated from lysates with anti-Contactin antibodies; also called Contactin/F3
T1 sequence (looked up): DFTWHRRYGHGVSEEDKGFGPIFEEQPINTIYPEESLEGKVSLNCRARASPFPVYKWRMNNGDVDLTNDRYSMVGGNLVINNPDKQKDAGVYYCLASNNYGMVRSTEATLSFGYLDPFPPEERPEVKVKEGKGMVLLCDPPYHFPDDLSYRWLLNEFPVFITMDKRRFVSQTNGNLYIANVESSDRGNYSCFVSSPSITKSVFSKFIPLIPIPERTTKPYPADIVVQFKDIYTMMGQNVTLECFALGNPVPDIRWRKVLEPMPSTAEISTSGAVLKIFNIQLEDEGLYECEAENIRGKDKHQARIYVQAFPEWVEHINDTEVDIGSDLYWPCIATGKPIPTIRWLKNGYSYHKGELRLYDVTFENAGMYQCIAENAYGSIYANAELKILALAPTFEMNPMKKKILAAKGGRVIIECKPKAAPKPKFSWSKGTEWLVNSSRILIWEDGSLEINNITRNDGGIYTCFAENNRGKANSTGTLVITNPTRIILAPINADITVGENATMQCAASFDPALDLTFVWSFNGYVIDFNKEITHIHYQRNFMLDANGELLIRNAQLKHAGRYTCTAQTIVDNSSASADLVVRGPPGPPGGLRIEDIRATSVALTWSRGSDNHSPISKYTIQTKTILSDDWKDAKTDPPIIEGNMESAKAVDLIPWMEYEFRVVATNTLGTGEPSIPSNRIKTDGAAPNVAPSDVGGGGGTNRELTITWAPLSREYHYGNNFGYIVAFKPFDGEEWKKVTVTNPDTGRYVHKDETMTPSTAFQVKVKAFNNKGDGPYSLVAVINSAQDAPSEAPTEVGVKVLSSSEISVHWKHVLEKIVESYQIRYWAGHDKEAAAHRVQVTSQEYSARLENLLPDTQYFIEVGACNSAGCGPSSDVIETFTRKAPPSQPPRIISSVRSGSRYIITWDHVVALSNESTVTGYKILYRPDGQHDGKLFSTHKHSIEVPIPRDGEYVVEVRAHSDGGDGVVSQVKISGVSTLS


Biological target: T1, Contactin (mouse Cntn1)
Experiment: co-IP with anti-Contactin antibodies from lysates of HEK cells co-transfected with Contactin, immunoblot for Cntnap1 (FIG. 17J)
Source text: After confirming the mutations, the wild-type Cntnap1, Cntnap1C^C324R or […] cDNAs and Contactin cDNA (MG50933-CF, SinoBiological) were co-transfected into HEK cells. Contactin surface expression was examined by immunostaining of live, non-permeabilized HEK cells followed by fixation and permeabilization and immunostaining with an anti-Cntnap1 antibody to detect the expression of Cntnap1. The wild-type Cntnap1 protein was readily localized at the cell surface of the HEK cells (FIGS. 17Ga, c), however, the surface localization of Cntnap1^C324R (FIGS. 17Ha, c), and Cntnap1^R765c (FIGS. 17Ia, c) mutant proteins was strongly affected. […] The Cntnap1 protein expression was mostly cytosolic in both Cntnap1^C324R or Cntnap1^R765C transfected HEK cells as was the Contactin localization. […] IP of cell lysates from HEK cells that co-expressed the wild-type Cntnap1, Cntnap1^C324R and Cntnap1^R765C proteins and Contactin was also carried out. The expression levels of these proteins were similar in HEK cells transfected with respective expression constructs (FIG. 17J, input).

| level of Cntnap1 co-immunoprecipitated with Contactin, relative to wild-type Cntnap1 [%] | Binder |
| --- | --- |
| 60 | Cntnap1^C324R mutant expressed in HEK cells (site-directed mutant of pCMV-Cntnap1^Flag) (receptor, Co-transfected with Contactin cDNA; the co-IP was done on total cell lysates; also called Mouse Cntnap1^C324R clone; not shown: Flag tag inherited from pCMV-Cntnap1^Flag) WGYYGCNEELVGPLYARSLGASSYYGLFTTARFARLHGISGWSPRIGDPNPWLQIDLMKKHRIRAVATQGAFNSWDWVTRYMLLYGDRVDSWTPFYQKGHNATFFGNVNDSAVVRHDLHYHFTARYIRIVPLAWNPRGKIGLRLGIYGCPYTSSILYFDGDDAISYRFQRGASQSLWDVFAFSFKTEEKDGLLLHTEGSQGDYVTLELQGAHLLLHMSLGSSPIQPRPGHTTVSLGGVLNDLSWHYVRVDRYGRDANFTLDGYAHHFVLNGDFERLNLENEIFIGGLVGAARKNLAYRHNFRGRIENVIYNRINIAEMAVMRHSRITFEGNVAFRCLDPVPHPINFGGPHNFVQVPGFPRRGRLAVSFRFRTWDLTGLLLFSHLGDGLGHVELMLSEGQVNVSIAQTGRKKLQFAAGYRLNDGFWHEVNFVAQENHAVISIDDVEGAEVRVSYPLLIRTGTSYFFGGCPKPASRWGCHSNQTAFHGCMELLKVDGQLVNLTLVEFRKLGYFAEVLFDTCGITDRCSPNMCEHDGRCYQSWDDFICYCELTGYKGVTCHEPLYKESCEAYRLSGKYSGNYTIDPDGSGPLKPFVVYCDIRENRAWTVVRHDRLWTTRVTGSSMDRPFLGAIQYWNASWEEVSALANASQHCEQWIEFSCYNSRLLNTAGGYPYSFWIGRNEEQHFYWGGSQPGIQRCACGLDQSCVDPALHCNCDADQPQWRTDKGLLTFVDHLPVTQVVVGDTNRSNSEAQFFLRPLRCYGDRNSWNTISFHTGAALRFPPIRANHSLDVSFYFRTSAPSGVFLENMGGPFCRWRRPYVRVELNTSRDVVFAFDIGNGDENLTVHSDDFEFNDDEWHLVRAEINVKQARLRVDHRPWVLRPMPLQTYIWLVYDQPLYVGSAELKRRPFVGCLRAMRLNGVTLNLEGRANASEGTFPNCTGHCTHPRFPCFHGGRCVERYSYYTCDCDLTAFDGPYCNHDIGGFFETGTWMRYNLQSALRSAAREFSHMLSRPVPGYEPGYVPGYDTPGYVPGYHGPGYRLPEYPRPGRPVPGYRGPVYNVTGEEVSFSFSTNSAPAVLLYVSSFVRDYMAVLIKEDGTLQLRYQLGTSPYVYQLTTRPVTDGQPHSVNITRVYRNLFIQVDYFPLTEQKFSLLVDSQLDSPKALYLGRVMETGVIDPEIQRYNTPGFSGCLSGVRFNNVAPLKTHFRTPRPMTAELAEAMRVQGELSESNCGAMPRLVSEVPPELDPWYLPPDFPYYHDDGWIAILLGFLVAFLLLGLVGMLVLFYLQNHRYKGSYHTNEPKATHDSHPGGKAPLPPSGPAQAPAPTPAPTQLPTPAPAPAPAPASGPGPRDQNLPQILEESRSE |
| 10 | Cntnap1^R765C mutant expressed in HEK cells (site-directed mutant of pCMV-Cntnap1^Flag) (receptor, Co-transfected with Contactin cDNA; the co-IP was done on total cell lysates; also called Mouse Cntnap1^R765C clone; not shown: Flag tag inherited from pCMV-Cntnap1^Flag) WGYYGCNEELVGPLYARSLGASSYYGLFTTARFARLHGISGWSPRIGDPNPWLQIDLMKKHRIRAVATQGAFNSWDWVTRYMLLYGDRVDSWTPFYQKGHNATFFGNVNDSAVVRHDLHYHFTARYIRIVPLAWNPRGKIGLRLGIYGCPYTSSILYFDGDDAISYRFQRGASQSLWDVFAFSFKTEEKDGLLLHTEGSQGDYVTLELQGAHLLLHMSLGSSPIQPRPGHTTVSLGGVLNDLSWHYVRVDRYGRDANFTLDGYAHHFVLNGDFERLNLENEIFIGGLVGAARKNLAYRHNFRGCIENVIYNRINIAEMAVMRHSRITFEGNVAFRCLDPVPHPINFGGPHNFVQVPGFPRRGRLAVSFRFRTWDLTGLLLFSHLGDGLGHVELMLSEGQVNVSIAQTGRKKLQFAAGYRLNDGFWHEVNFVAQENHAVISIDDVEGAEVRVSYPLLIRTGTSYFFGGCPKPASRWGCHSNQTAFHGCMELLKVDGQLVNLTLVEFRKLGYFAEVLFDTCGITDRCSPNMCEHDGRCYQSWDDFICYCELTGYKGVTCHEPLYKESCEAYRLSGKYSGNYTIDPDGSGPLKPFVVYCDIRENRAWTVVRHDRLWTTRVTGSSMDRPFLGAIQYWNASWEEVSALANASQHCEQWIEFSCYNSRLLNTAGGYPYSFWIGRNEEQHFYWGGSQPGIQRCACGLDQSCVDPALHCNCDADQPQWRTDKGLLTFVDHLPVTQVVVGDTNCSNSEAQFFLRPLRCYGDRNSWNTISFHTGAALRFPPIRANHSLDVSFYFRTSAPSGVFLENMGGPFCRWRRPYVRVELNTSRDVVFAFDIGNGDENLTVHSDDFEFNDDEWHLVRAEINVKQARLRVDHRPWVLRPMPLQTYIWLVYDQPLYVGSAELKRRPFVGCLRAMRLNGVTLNLEGRANASEGTFPNCTGHCTHPRFPCFHGGRCVERYSYYTCDCDLTAFDGPYCNHDIGGFFETGTWMRYNLQSALRSAAREFSHMLSRPVPGYEPGYVPGYDTPGYVPGYHGPGYRLPEYPRPGRPVPGYRGPVYNVTGEEVSFSFSTNSAPAVLLYVSSFVRDYMAVLIKEDGTLQLRYQLGTSPYVYQLTTRPVTDGQPHSVNITRVYRNLFIQVDYFPLTEQKFSLLVDSQLDSPKALYLGRVMETGVIDPEIQRYNTPGFSGCLSGVRFNNVAPLKTHFRTPRPMTAELAEAMRVQGELSESNCGAMPRLVSEVPPELDPWYLPPDFPYYHDDGWIAILLGFLVAFLLLGLVGMLVLFYLQNHRYKGSYHTNEPKATHDSHPGGKAPLPPSGPAQAPAPTPAPTQLPTPAPAPAPAPASGPGPRDQNLPQILEESRSE |
